Assay results taken from a protein production outcome set (Wang et al. 2014).

Assay: label from the status in PepcDB records
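Also: failed if final PepcDB status was selected cloned or expressed and not failed if soluble or beyond.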

Sequence | protein production
MAVTISGVRKHSPAYRHGIQAGERLLTLNGNEIMDVLDYRFYQLNTALVLELENNRGERRTVSLKKPEYEEIGLEFETYLMDRQHSCKNKCVFCFIDQLPKGLRKSLYFKDDDSRLSFLFGNYVTLTNLTEHEISRIIKMHISPMNISVHTTNPELRVKMMKNPRAGEALSIIRRFAQAGIKINCQIVLCPGYNDGEELKRTLSDLETMCPQVQAVAVVPVGITRYRQNLPEMRSFTRETAGEAIDLIESFGEKCLQKYGTRVAYPGDEFYLKAERPLPPAGFYEDFSMLENGVGLLPLLMDEFYSALEEAGETGGRKREITIATGMAPREYIRGFLDDAIKKFPHISGRVTPIVNRFFGETITVSGLVTGTDLIEQLSSVDLGDELLIPACMLRREGDLFLDDVSLQDVEAALKVPVRPVPNDGYAFLDAILGSESLEHHHHHH | failed
MAVTLQQTLIDIDEEQLVFHLHNDQISYILGVETGNVLAHLYFGPRVRGYHGERQYPRIDRGFSGNLPNTTDRSYSKDDLPQEYGGNNTGDYRQPAAIIRAANGARTVDFRYQDCRMEAGKPELKGLPQTYVEDEDEAQTLIVTLRDATLGVTLELAYTIYRDRPVITRSARLINHSEQAVDLEKVASMQMDLPTQPLDAISLPGSYARERQLSRERLHRGVTQFESRRGASSHHMNPFVALADPNTNEFQGNVLGALLIYSGNHQISLERDPIGQTRLTMGINEYNFDWRLAAGDSFQTPEVAMVYSTTGLNGMSQTYHDLLRDRVARSRYKHDLRPILINNWEATYFDFDADKIQSILDAAAPLGIEMFVLDDGWFGHRNDDNSSLGDWFVNRNKLPGGLADISKRTHDKGMRFGLWFEPENISADSDLYRAHPDWVLGVPDRGRTLSRNEYVLDFSQPDVVDNIFEQMTAVLDKVPIDYIKWDMNRNLTEVYSPHSDSTHEGETSHRFILGVYDLMERLTKRYPQILFEGCSGGGGRFDAGLMYYMPQSWPSDNNDPIERLKIQYGTSLVYPISAITAHVGTSPDELLGRSTSMKMRGAVAMSGTLGYELDAAQLSDADKQAVKRQVAFYKQHRELVQYGTFYRLESPFESNTVAWMFVSPDQKEALLFTFVILGAVQPEPHITKLAGLDPQQTYVETDTNKMYGGDELMQLGLYTTPVQTSDFTAQVHYFKAKDLEHHHHHH | failed
MAVTPVLACYRTCDAAIGGITAWQVTTGPDGPRTNVVGSCPLGDASWVTPLYHLVVVLCERDGTLVVVHPGREFQVVGTVQLKGQWPCHGAVDPTGRLMAVADYASGQVEFVDLSDPTRPTVRNVLDLGQGCVFPRPVADRQEGPHAHQVTWLDRAHLAVTDLGADRINVVRWSEAGPEIIGSLKTPAGCGPRHLTLTEDGRKQILTVGGALSGTVSTWSRPTGHDMWAREWRFVQETASSRWSHTGSQERRSACTPASPSAIVTTPDGRHFVANRSVGSIGILGGRFGRINLIDEFDTTGANPRDITVTTQNGTRVWVALPEEGQIAIHLRDEDTGGWQVETTIDQPGAMRVIVGPTTG | failed
MAVYNPKPEFFRQAVLSVLGQTMPVLELVLVNDGGSDEFKSVLPDDDRIRVFTKPNEGVAATRNFAIKQCRGEYIAFLDQDDYWYSDKLAEQMAMISVKGEACMVISPVDIVDNQGVPIIKQNRKKVTNRYFRKIAHPDIRFPLADGNFIYSSTPLIHRRVFECVGLFDSFTQPHDDWDMYLRIALAGISVHCYRERALSVWRMHDSNESQKRMAMMLSKCEVEWKILQGGVPEPVAKIMHSNLALDQIVMDNLWYNEREFARFRETVRRDLPGLMRCAVNSGRHDRYVTGYRKRAASAIIKSARRYLLSLFSRQR | failed
MAWFLLVIAGIEEIIAAIAMKYIDGTRKKWPIIVMTVGFGLSFYCLSQAMIVLPAGVAYAVWTGIGSIGVSAVGLIWFKERFQLSQVISLCLILAGVIGLRLTSSS | failed
MAWGVCDINGSFAGQNPVTTRLSVRRCQWRCVDFAHSKCLRTQNYRVQMRSCRTGVYGSPRGDANEAVPPPHQPKGPLRTMPLETLINAGFVDYLILLIYFVFVLGIGLAARHQVSDSLDFFLSGRSLPGWVTGLAFVSANLGAVEIMGMSANGAQIGIPTVHYFWIGAIPAMVFLGIVMMPFYYGSGVRSVPEFMLKRFGPAAHLVNAISFALAQLLIAGINLYLLGTIVHALLGWPLWVALIVAAMIVLAYISLGGLSAAIYNEVLQFFVIVASLLPLVIIGLHRVGGWSGLKAKITAAAEAHPDVVTPAAQQLHSWPGQALSGFGSPVMSVIGITLGLGFVLSFGYWTTNFVEVQRAMASDSLSSARKTPTIGAFPKMLVPFLTVLPGMLAAVLVPEIARMKAGEKVAGGASGSFVQYNDSVLFLIRNLLPTGLTGVAITGLLAAFMAGMAANISAFNTVFSVDIWQHYVIKDKPDGYYVKVGRIATVIATVVAIGTAFMASGFSNIMDYLQTLFGFFNAPLFATFILGMFWKRSTPHAGWSGLVVGTLSAVTVWVMSLAGVFTLPGQGTAFLAATVGFVADIIVSIVVSLFTEPKPAAELVRLVYSETPKEHLVDPLEKDLPWYRRTVPLGMTVLAITVVLNIIF | failed
MAYGDKDEVLSVDVGSNAKVMKHLDGDDAMKKAQVRGRSGQEFSKETTKMMMKKTTKKETNVEEEDDLVAYTADYWKPRHHPPKNN | failed
MAYGTYRGLFAPEVAGPLAKLLVLLLVGYGLYQNRHLKSLYLVLLGLLLNALVIFANGGHMPVSPTALHRAGIGEFADLLRDKGDAVHALLDEKTRLPFLGDVIPLPPLRKVVSPGDLFILLGIVGVVVEGALKGGVRLRRRALALRLLLYLAFVLALLALRG | failed
MAYLAPISSSLSIFKNPQLSRFQFSSSSPNPLFLRPRIQILSMTMNKSPSLVVVAATTAAEKQKKRYPGESKGFVEEMRFVAMRLHTKDQAKEGEKETKSIEERPVAKWEPTVEGYLRFLVDSKLVYDTLELIIQDSNFPTYAEFKNTGLERAEKLSTDLEWFKEQGYEIPEPTAPGKTYSQYLKELAEKDPQAFICHFYNIYFAHSAGGRMIGRKVAERILDNKELEFYKWDGELSQLLQNVREKLNKVAEEWTREEKNHCLEETEKSFKYSGEILRLILS | failed
MCCPPMTSSSSLSHHASQSGQVRLCPGCELPIDAITVDQAHSAHCPRCGTLLYRGGSPSLSGDLALAVTCLLLFIPSHFFSYIDIRLFGVMIPATLPQGVFALWDEGYIALALLVLFCSSIAPLVLCLSVVSAHLALRFRYFQTLRYSLLFIHHLKVWVMIDVFLVSVAVSCFKLKDYSDIFIGPGLLGLVLLQLFTVLLLSRISTRRYWETWQAETEYDLPVKQVHCHNCHLSQPENGHCVRCQHKLYHRKPNSIERTWAYVLAATVAIFPANLIPISILITNGQRLEDTIFSGVASLVKNGMWGIALIIFVASIVVPVIKIIGLAYLLMAIKLKRHVHQRQRMMIYRGIKWIGKWSVMDLFVISIMLTLVDRGQILDFTPGYGAVAFGMVVVLTMLAAESLDPRLLWDEPDSTRTQQ | failed
MCDCLSIILLVKMKKIYLKFVDFWDGFDTISNFIVDALSIQYEVVLSNEPDYLFYSCFGTSHLEYDCIKIMFIGENIVPDFNVCDYAIGFNYIDFGDRYLRLPLYAIYDGFSNLQNKKIDVNKALDRKFCSIVVSNNKWADPIRETFFKLLSSYKKVDSGGRAWNNIGGPVDNKLDFISQYKFNIAFENSRVLGYTTEKIMEPMQVNSIPVYWGNPLVGKDFNVDSFVNAHDFDSLERLVEYIIELDSSKDKYLEMLEKPWLLDKTYLDWKQLLLNFINNIMMKSYKDAKYLVNYGHAGKYRNEQRFWGRCERKFKLQRIIEYYSQLFDRKLEHHHHHH | failed
MCDFISHNKQLFDELDIFIDSLATKEGALIQVLHEAQGIFGYLPKEVQLHVARKLGVAPAKVYGVVTFYSYFTTEPVGKYKISVCLGTVCFVKGADKILSAFEKQLGIKVGETTSDFKFSLEGLRCLGACGLAPVVTVNGKVYGKVKPDQVSEILDTYRELELNC | failed
MCDQTKHSKCCPAKGNQCCPPQQNQCCQSKGNQCCPPKQNQCCQPKGSQCCPPKHNHCCQPKPPCCIQARCCGLETKPEVSPLNMESEPNSPQTQDKGCQTQQQPHSPQNESRPSK | failed
MCEIFIRANQRSYSVQARSLRLHGVATSVRLEQLFWDVLEEIAARDGMRVTQLIERLYDELVQYRGEAANFTSFLRVCCLRYQVLQAEGRIPADATVPIRSLDAQAVLRGLPANLYDSRPLG | not failed
MCGLAGWVDYTRKLDDEFPAIFAMTDTLALRGPDAEGIWKHRNALLGHRRLAVIDLSGGVQPMSYRFPTGQEVTLVYTGEVYNHDALRERLRRAGHEFRTRSDTEVVLHAYLQWGERCCEYLTGMFAFAVFDGRDGHLLLVRDRLGIKPLYYARHREGLLFGSEIKSILAHPEFAARLDAVGLVDLLTLSRGTSQTPFREVQELLPGHLLSWRPNSQAKLRRYWEVRRQEHADDLQSTVQRTRELVTRALGAQLHADVPVCSLLSGGLDSTALTGIAQRIAKAEHGGDINSFSVDFVGQAEQFRSDDLRPDQDQPFALLAAQYIGSRHRTVLIDNAELVCERAREEVFRAKDVPFTFGDMDTSLHLMFGEIRRHSTVAISGEGADELFGGYGWFRDPQAVAAARFPWASRVRLPAGFIDAGFNRRCDLLQYQQASYDDGLRQVEHLAGDSPEERRMREFSHLHLKRWMVLLLERKDRLSMCNGLEVRVPYTDHELVEYVYNVPWSIKSRDGEEKWLLKRACADYVPEAVLKRRKSPYPTSANLGYERFLRGSVRRLLEDAVNPVFGIVSREFLAAELEHPEGYFNTQVSRHNLETALALEGWLRLYGLS | failed
MCGTRSSAQTSKTSLCALLLSAAMSLVLAAPASAAADCIAGSKAAPAELITSCSAIIDQAANSSSDRAAALLVRADANARTSGGLTQALRDIDRAIALDGKNAKAWRLRGDLLREAGGDLNRAAADLSKAIELDPQDAESYELRGVVYTSQRRLDRALADYDQAIKLKPGDAQAWSDRGVTYYLGGDNEKAIRDLSEALRLDPNRPRTYTNRGAAYKKLGQLDKSVADAAEAIRLDPKVPEYYDNRGLSLAAMGDYDKAIADYDQALRLAPKPNFFTNRGDSYQFKGEFGAALSDYESALKLDPNFAQTYNNRAVLYKKMGERRKALADYETALKLDPGNDNAANGRRTMIAEIAKFGDEPRRPLAANSGNGPSFDCATAKREVEKVICADPELGVLDRQIAETYERVLKSANRRSAGDLRRTQRDFLATRNSSFGRPGYDLRKVMQERLQRLNAMEG | failed
MCIAIPGKMTAIVDENTATIDMGGICRDVNMALMGGAEESMIGKHFLVHVGYAISEISEEESEETMRLLKIMAGLEEIDSFENESQ | failed
MCLAIPSVVIDIFEEDGEKYALAEYKGVKQKAKLALIEGVEIGDYVLIHTGYALEKMSEDEAKLSLDAWEELFDVLDEM | failed
MCNDTATPQLEELVTTVANQLMTVDAATSAEVSQRVLAYLVEQLGVDVSFLRHNDRDRRATRLVAEWPPRLNIPDPDPLRLIYFADADPVFALCEHAKEPLVFRPEPATEDYQRLIEEARGVPVTSAAAVPLVSGEITTGLLGFIKFGDRKWHEAELNALMTIATLFAQVQARVAAEARLRYLADHDDLTGLHNRRALLQHLDQRLAPGQPGPVAALFLDLDRLKAINDYLGHAAGDQFIHVFAQRIGDALVGESLIARLGGDEFVLIPASPMSADAAQPLAERLRDQLKDHVAIGGEVLTRTVSIGVASGTPGQHTPSDLLRRADQAALAAKHAGGDSVAIFTADMSVSGELRNDIELHLRRGIESDALRLVYLPEVDLRTGDIVGTEALVRWQHPTRGLLAPGCFIPVAESINLAGELDRWVLRRACNEFSEWQSAGLGHDALLRINVSAGQLVTGGFVDFVADTIGQHGLDASSVCLEITENVVVQDLHTARATLARLKEVGVHIAIDDFGTGYSAISLLQTLPIDTLKIDKTFVRQLGTNTSDLVIVRGIMTLAEGFQLDVVAEGVETEAAARILLDQRCYRAQGFLFSRPVPGEAMRHMLSARRLPPTCIPATDPALS | failed
